Measured values as given in patent US20240101716A1 (LA NOVA MEDICINES DEVELOPMENT, published 2024).
One block for each binder: values may come before it.

Molecular target: T1, recombinant human SIRPα variant 2 protein (human, UniProt P78324 31-370, limits assumed)
T1 construct: polymorphic variant 2; also called SIRPα v2; hSIRPαV2
Assay: ELISA on coated recombinant human SIRPα v2, OD450
Experimental: After coating of the antigen, the wells were blocked with PBS/0.05% Tween (PBST) with 1% BSA for 1 h at RT.
Between all incubation steps, the wells of the plate were washed with PBST three times. […]

T1 sequence (P78324 other isoform, or with tags, fused parts or gaps mutant limits assumed): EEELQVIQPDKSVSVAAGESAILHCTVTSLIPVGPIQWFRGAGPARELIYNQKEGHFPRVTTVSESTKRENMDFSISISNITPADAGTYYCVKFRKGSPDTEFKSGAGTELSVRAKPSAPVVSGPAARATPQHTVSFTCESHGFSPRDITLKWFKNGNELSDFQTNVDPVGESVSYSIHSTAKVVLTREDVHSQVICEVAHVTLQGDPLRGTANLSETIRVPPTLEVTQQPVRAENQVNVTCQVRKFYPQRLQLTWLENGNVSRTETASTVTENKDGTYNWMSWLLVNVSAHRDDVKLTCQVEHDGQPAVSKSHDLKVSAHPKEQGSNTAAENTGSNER

EC50: 0.0136 µg/mL
B1: 248G3F6 (antibody, V domains shown)
VH: EVQLQQSGAELVKPGASVKLSCTASGFNFEDTYMHWVKQRPDQGLEWIGRIDPADGDTKYNPKFQDKATITVDTSSNTAYLQLSSLTSEDTAVYYCVRGNYVNWGQGTTLTVSS
VL: QIVLIQSPAIMSASPGERVTLTCRASSSVSSSYLYWYQQKPGSSPKLWIYSTSNLASGVPARFSGSGSGTSYSLTISSMEAEDAASYFCHQWYSYPRTFGGGTKLEIK
notes: murine hybridoma antibody; also called mouse anti-SIRPα mAb 248G3F6

EC50: 0.0105 µg/mL
B2: 300A6A6 (antibody, V domains shown)
VH: QVQLQQSGTELVKPGSSVKISCKASGYTFTSNYIHWIRQQPGNGLEWIGWIYPGDGDTNYNQKFNGKATLTADKSSSTAYMQLSSLTSEDYAVYFCAINYGGIWFAYWGQGTLVTVSS
VL: DIQMTQSPSSMSASLGDRVTITCQASQDIGNKLIWFQQKPGKSPRLMIHYVTNLPGGVPLRFSGSRSGSDYSLTISSLESEDMADYYCLQYKQNPLTFGSGTKLEIK
notes: murine hybridoma antibody; also called mouse anti-SIRPα mAb 300A6A6
